The Human Domainome abundance scans (Beltran et al. 2025)
± gives the uncertainty stated by the source.

B1: Transcription elongation factor A N-terminal and central domain-containing protein, residues 30 to 77; numbered along this chain, Q8N8B7 (parent)
chain: LTELETIYVTKEHLQETDVVRAVYRVLKNCPSVALKKKAKCLLSKWKA
B2: Nuclear receptor subfamily 4 group A member 2, residues 260 to 336; numbered along this chain, P43354 (parent)
chain: EGLCAVCGDNAACQHYGVRTCEGCKGFFKRTVQKNAKYVCLANKNCPVDKRRRNRCQYCRFQKCLAVGMVKEVVRTD

Variants of: B1
Assay: abundance fitness (aPCA) (normalised: wild type 0, dead -1); higher = more abundant; growth selection in yeast, the domain comes from the species named
Settings: Homo sapiens

Variant	abundance fitness
CTELETIYVTKEHLQETDVVRAVYRVLKNCPSVALKKKAKCLLSKWKA	-0.162 ± 0.15
QTELETIYVTKEHLQETDVVRAVYRVLKNCPSVALKKKAKCLLSKWKA	0.202 ± 0.19
GTELETIYVTKEHLQETDVVRAVYRVLKNCPSVALKKKAKCLLSKWKA	0.363 ± 0.23
VTELETIYVTKEHLQETDVVRAVYRVLKNCPSVALKKKAKCLLSKWKA	-0.379 ± 0.14
RTELETIYVTKEHLQETDVVRAVYRVLKNCPSVALKKKAKCLLSKWKA	-0.202 ± 0.33
MTELETIYVTKEHLQETDVVRAVYRVLKNCPSVALKKKAKCLLSKWKA	0.235 ± 0.39
TTELETIYVTKEHLQETDVVRAVYRVLKNCPSVALKKKAKCLLSKWKA	0.251 ± 0.3
STELETIYVTKEHLQETDVVRAVYRVLKNCPSVALKKKAKCLLSKWKA	-0.501 ± 0.31
WTELETIYVTKEHLQETDVVRAVYRVLKNCPSVALKKKAKCLLSKWKA	-0.554 ± 0.18
YTELETIYVTKEHLQETDVVRAVYRVLKNCPSVALKKKAKCLLSKWKA	-0.521 ± 0.21
FTELETIYVTKEHLQETDVVRAVYRVLKNCPSVALKKKAKCLLSKWKA	-0.001 ± 0.25
LCELETIYVTKEHLQETDVVRAVYRVLKNCPSVALKKKAKCLLSKWKA	-0.501 ± 0.18
LEELETIYVTKEHLQETDVVRAVYRVLKNCPSVALKKKAKCLLSKWKA	0.27 ± 0.12
LAELETIYVTKEHLQETDVVRAVYRVLKNCPSVALKKKAKCLLSKWKA	-0.385 ± 0.11
LDELETIYVTKEHLQETDVVRAVYRVLKNCPSVALKKKAKCLLSKWKA	0.107 ± 0.17

Variants of: B2
Assay: as above
Settings: Homo sapiens

Variant	abundance fitness
EGLCAVCGDNAACQHYGVRTCEGCKGFFKRTVQKNAKYVCLANKNCPVDKRRRNRCQYCRFQKCLAVGMVKEVVQTD	0.065 ± 0.26
EGLCAVCGDNAACQHYGVRTCEGCKGFFKRTVQKNAKYVCLANKNCPVDKRRRNRCQYCRFQKCLAVGMVKEVVLTD	0.015 ± 0.053
EGLCAVCGDNAACQHYGVRTCEGCKGFFKRTVQKNAKYVCLANKNCPVDKRRRNRCQYCRFQKCLAVGMVKEVVVTD	0 ± 0.036
EGLCAVCGDNAACQHYGVRTCEGCKGFFKRTVQKNAKYVCLANKNCPVDKRRRNRCQYCRFQKCLAVGMVKEVVWTD	-0.103 ± 0.051
EGLCAVCGDNAACQHYGVRTCEGCKGFFKRTVQKNAKYVCLANKNCPVDKRRRNRCQYCRFQKCLAVGMVKEVVYTD	-0.112 ± 0.19
EGLCAVCGDNAACQHYGVRTCEGCKGFFKRTVQKNAKYVCLANKNCPVDKRRRNRCQYCRFQKCLAVGMVKEVVDTD	-0.136 ± 0.12
EGLCAVCGDNAACQHYGVRTCEGCKGFFKRTVQKNAKYVCLANKNCPVDKRRRNRCQYCRFQKCLAVGMVKEVVNTD	0 ± 0.39
EGLCAVCGDNAACQHYGVRTCEGCKGFFKRTVQKNAKYVCLANKNCPVDKRRRNRCQYCRFQKCLAVGMVKEVVGTD	0.033 ± 0.031
EGLCAVCGDNAACQHYGVRTCEGCKGFFKRTVQKNAKYVCLANKNCPVDKRRRNRCQYCRFQKCLAVGMVKEVVMTD	0.019 ± 0.13
EGLCAVCGDNAACQHYGVRTCEGCKGFFKRTVQKNAKYVCLANKNCPVDKRRRNRCQYCRFQKCLAVGMVKEVVITD	-0.017 ± 0.14
EGLCAVCGDNAACQHYGVRTCEGCKGFFKRTVQKNAKYVCLANKNCPVDKRRRNRCQYCRFQKCLAVGMVKEVVETD	0.094 ± 0.087
EGLCAVCGDNAACQHYGVRTCEGCKGFFKRTVQKNAKYVCLANKNCPVDKRRRNRCQYCRFQKCLAVGMVKEVVTTD	0.214 ± 0.37
EGLCAVCGDNAACQHYGVRTCEGCKGFFKRTVQKNAKYVCLANKNCPVDKRRRNRCQYCRFQKCLAVGMVKEVVSTD	0.063 ± 0.12
EGLCAVCGDNAACQHYGVRTCEGCKGFFKRTVQKNAKYVCLANKNCPVDKRRRNRCQYCRFQKCLAVGMVKEVVATD	-0.01 ± 0.075
EGLCAVCGDNAACQHYGVRTCEGCKGFFKRTVQKNAKYVCLANKNCPVDKRRRNRCQYCRFQKCLAVGMVKEVVCTD	0.057 ± 0.055
EGLCAVCGDNAACQHYGVRTCEGCKGFFKRTVQKNAKYVCLANKNCPVDKRRRNRCQYCRFQKCLAVGMVKEVGRTD	-0.013 ± 0.039
EGLCAVCGDNAACQHYGVRTCEGCKGFFKRTVQKNAKYVCLANKNCPVDKRRRNRCQYCRFQKCLAVGMVKEVIRTD	0.091 ± 0.13
EGLCAVCGDNAACQHYGVRTCEGCKGFFKRTVQKNAKYVCLANKNCPVDKRRRNRCQYCRFQKCLAVGMVKEVLRTD	-0.052 ± 0.065
EGLCAVCGDNAACQHYGVRTCEGCKGFFKRTVQKNAKYVCLANKNCPVDKRRRNRCQYCRFQKCLAVGMVKEVFRTD	-0.148 ± 0.13
EGLCAVCGDNAACQHYGVRTCEGCKGFFKRTVQKNAKYVCLANKNCPVDKRRRNRCQYCRFQKCLAVGMVKEVWRTD	-0.208 ± 0.066
EGLCAVCGDNAACQHYGVRTCEGCKGFFKRTVQKNAKYVCLANKNCPVDKRRRNRCQYCRFQKCLAVGMVKEVKRTD	-0.025 ± 0.31
EGLCAVCGDNAACQHYGVRTCEGCKGFFKRTVQKNAKYVCLANKNCPVDKRRRNRCQYCRFQKCLAVGMVKEVRRTD	-0.118 ± 0.11
EGLCAVCGDNAACQHYGVRTCEGCKGFFKRTVQKNAKYVCLANKNCPVDKRRRNRCQYCRFQKCLAVGMVKEVCRTD	-0.098 ± 0.071
